The experiment concerns the target T1, OTULIN (OTU deubiquitinase with linear linkage specificity, FAM105B), His-tagged, biotin-labelled (human, UniProt Q96BN8 1-352, biotin (label; sites not stated)).
T1 construct: OTULIN (FAM105B), cDNA in pET28a; also called HIS-OTULIN; source: E. coli BL21 (DE3), purified (His-tag Purification Resin), labelled with biotin; not shown: His6, N-terminal, kept
The experiment in a line: peptide or protein array; HuProt human proteome microarray; 5 ug/5 ml biotin-labelled LUBAC or OTULIN in solution, 1 h at room temperature; Cy5-streptavidin, scanned at 635 nm; BSA as negative control; hits: Z-score >= 3 and I_(Mean_Ratio) >= 1.4. To be noted: both partners purified.

B1: GTF2B (natural protein, human, UniProt Q00403 1-316, looked up)
chain: MASTSRLDALPRVTCPNHPDAILVEDYRAGDMICPECGLVVGDRVIDVGSEWRTFSNDKATKDPSRVGDSQNPLLSDGDLSTMIGKGTGAASFDEFGNSKYQNRRTMSSSDRAMMNAFKEITTMADRINLPRNIVDRTNNLFKQVYEQKSLKGRANDAIASACLYIACRQEGVPRTFKEICAVSRISKKEIGRCFKLILKALETSVDLITTGDFMSRFCSNLCLPKQVQMAATHIARKAVELDLVPGRSPISVAAAAIYMASQASAEKRTQKEIGDIAGVADVTIRQSYRLIYPRAPDLFPTDFKFDTPVDKLPQL
notes: GTF2B; protein on the human proteome microarray; source: spotted on the HuProt human proteome microarray
Consider B1, for which the binding result is “binds”.

B2: CSRP3 (natural protein, human, UniProt P50461 1-194, looked up)
chain: MPNWGGGAKCGACEKTVYHAEEIQCNGRSFHKTCFHCMACRKALDSTTVAAHESEIYCKVCYGRRYGPKGIGYGQGAGCLSTDTGEHLGLQFQQSPKPARSVTTSNPSKFTAKFGESEKCPRCGKSVYAAEKVMGGGKPWHKTCFRCAICGKSLESTNVTDKDGELYCKVCYAKNFGPTGIGFGGLTQQVEKKE
notes: CSRP3; protein on the human proteome microarray; source: spotted on the HuProt human proteome microarray
On to B2, for which the binding result is listed as “binds”.

B3: EIF4H (natural protein)
chain: not shown
notes: EIF4H; protein on the human proteome microarray; source: spotted on the HuProt human proteome microarray
In the case of B3, the binding result is reported as “binds”.

B4: GCLM (natural protein, human, UniProt P48507 1-274, looked up)
chain: MGTDSRAAKALLARARTLHLQTGNLLNWGRLRKKCPSTHSEELHDCIQKTLNEWSSQINPDLVREFPDVLECTVSHAVEKINPDEREEMKVSAKLFIVESNSSSSTRSAVDMACSVLGVAQLDSVIIASPPIEDGVNLSLEHLQPYWEELENLVQSKKIVAIGTSDLDKTQLEQLYQWAQVKPNSNQVNLASCCVMPPDLTAFAKQFDIQLLTHNDPKELLSEASFQEALQESIPDIQAHEWVPLWLLRYSVIVKSRGIIKSKGYILQAKRRGS
notes: GCLM; protein on the human proteome microarray; source: spotted on the HuProt human proteome microarray
Take B4: the binding result is “binds”.

B5: CSRP1 (natural protein, human, UniProt P21291 1-193, looked up)
chain: MPNWGGGKKCGVCQKTVYFAEEVQCEGNSFHKSCFLCMVCKKNLDSTTVAVHGEEIYCKSCYGKKYGPKGYGYGQGAGTLSTDKGESLGIKHEEAPGHRPTTNPNASKFAQKIGGSERCPRCSQAVYAAEKVIGAGKSWHKACFRCAKCGKGLESTTLADKDGEIYCKGCYAKNFGPKGFGFGQGAGALVHSE
notes: CSRP1; protein on the human proteome microarray; source: spotted on the HuProt human proteome microarray
Take B5: the binding result is “binds”.

B6: DECR2 (natural protein, human, UniProt Q9NUI1 1-292, looked up)
chain: MAQPPPDVEGDDCLPAYRHLFCPDLLRDKVAFITGGGSGIGFRIAEIFMRHGCHTVIASRSLPRVLTAARKLAGATGRRCLPLSMDVRAPPAVMAAVDQALKEFGRIDILINCAAGNFLCPAGALSFNAFKTVMDIDTSGTFNVSRVLYEKFFRDHGGVIVNITATLGNRGQALQVHAGSAKAAVDAMTRHLAVEWGPQNIRVNSLAPGPISGTEGLRRLGGPQASLSTKVTASPLQRLGNKTEIAHSVLYLASPLASYVTGAVLVADGGAWLTFPNGVKGLPDFASFSAKL
notes: DECR2; protein on the human proteome microarray; source: spotted on the HuProt human proteome microarray
Turning to B6, the binding result is “binds”.

B7: KHDRBS3 (natural protein, human, UniProt O75525 1-346, looked up)
chain: MEEKYLPELMAEKDSLDPSFTHALRLVNQEIEKFQKGEGKDEEKYIDVVINKNMKLGQKVLIPVKQFPKFNFVGKLLGPRGNSLKRLQEETLTKMSILGKGSMRDKAKEEELRKSGEAKYFHLNDDLHVLIEVFAPPAEAYARMGHALEEIKKFLIPDYNDEIRQAQLQELTYLNGGSENADVPVVRGKPTLRTRGVPAPAITRGRGGVTARPVGVVVPRGTPTPRGVLSTRGPVSRGRGLLTPRARGVPPTGYRPPPPPPTQETYGEYDYDDGYGTAYDEQSYDSYDNSYSTPAQSGADYYDYGHGLSEETYDSYGQEEWTNSRHKAPSARTAKGVYRDQPYGRY
notes: KHDRBS3; protein on the human proteome microarray; source: spotted on the HuProt human proteome microarray
In the case of B7, the binding result is on record as “binds”.

B8: HTATIP2 (natural protein, human, UniProt Q9BUP3 1-242, looked up)
chain: MAETEALSKLREDFRMQNKSVFILGASGETGRVLLKEILEQGLFSKVTLIGRRKLTFDEEAYKNVNQEVVDFEKLDDYASAFQGHDVGFCCLGTTRGKAGAEGFVRVDRDYVLKSAELAKAGGCKHFNLLSSKGADKSSNFLYLQVKGEVEAKVEELKFDRYSVFRPGVLLCDRQESRPGEWLVRKFFGSLPDSWASGHSVPVVTVVRAMLNNVVRPRDKQMELLENKAIHDLGKAHGSLKP
notes: HTATIP2; protein on the human proteome microarray; source: spotted on the HuProt human proteome microarray
Turning to B8, the binding result is listed as “binds”.

B9: CCNB1IP1 (natural protein, human, UniProt Q9NPC3 1-277, looked up)
chain: MSLCEDMLLCNYRKCRIKLSGYAWVTACSHIFCDQHGSGEFSRSPAICPACNSTLSGKLDIVRTELSPSEEYKAMVLAGLRPEIVLDISSRALAFWTYQVHQERLYQEYNFSKAEGHLKQMEKIYTQQIQSKDVELTSMKGEVTSMKKVLEEYKKKFSDISEKLMERNRQYQKLQGLYDSLRLRNITIANHEGTLEPSMIAQSGVLGFPLGNNSKFPLDNTPVRNRGDGDGDFQFRPFFAGSPTAPEPSNSFFSFVSPSRELEQQQVSSRAFKVKRI
notes: CCNB1IP1; protein on the human proteome microarray; source: spotted on the HuProt human proteome microarray
With B9, the binding result was “binds”.

B10: GAPDH (natural protein)
chain: not shown
notes: GAPDH; protein on the human proteome microarray; source: spotted on the HuProt human proteome microarray
B10: the binding result was “binds”.

B11: ISG20 (natural protein)
chain: not shown
notes: ISG20; protein on the human proteome microarray; source: spotted on the HuProt human proteome microarray
Take B11: the binding result was “binds”.

B12: DNALI1 (natural protein, human, UniProt O14645 1-258, looked up)
chain: MIPPADSLLKYDTPVLVSRNTEKRSPKARLLKVSPQQPGPSGSAPQPPKTKLPSTPCVPDPTKQAEEILNAILPPREWVEDTQLWIQQVSSTPSTRMDVVHLQEQLDLKLQQRQARETGICPVRRELYSQCFDELIREVTINCAERGLLLLRVRDEIRMTIAAYQTLYESSVAFGMRKALQAEQGKSDMERKIAELETEKRDLERQVNEQKAKCEATEKRESERRQVEEKKHNEEIQFLKRTNQQLKAQLEGIIAPKK
notes: DNALI1; protein on the human proteome microarray; source: spotted on the HuProt human proteome microarray
As to B12, the binding result is “binds”.

B13: FAM49B (natural protein, human, UniProt Q9NUQ9 1-324, looked up)
chain: MGNLLKVLTCTDLEQGPNFFLDFENAQPTESEKEIYNQVNVVLKDAEGILEDLQSYRGAGHEIREAIQHPADEKLQEKAWGAVVPLVGKLKKFYEFSQRLEAALRGLLGALTSTPYSPTQHLEREQALAKQFAEILHFTLRFDELKMTNPAIQNDFSYYRRTLSRMRINNVPAEGENEVNNELANRMSLFYAEATPMLKTLSDATTKFVSENKNLPIENTTDCLSTMASVCRVMLETPEYRSRFTNEETVSFCLRVMVGVIILYDHVHPVGAFAKTSKIDMKGCIKVLKDQPPNSVEGLLNALRYTTKHLNDETTSKQIKSMLQ
notes: FAM49B; protein on the human proteome microarray; source: spotted on the HuProt human proteome microarray
Consider B13, for which the binding result was “binds”.

B14: GSTZ1 (natural protein, human, UniProt O43708 1-216, looked up)
chain: MQAGKPILYSYFRSSCSWRVRIALALKGIDYKTVPINLIKDRGQQFSKDFQALNPMKQVPTLKIDGITIHQSLAIIEYLEEMRPTPRLLPQDPKKRASVRMISDLIAGGIQPLQNLSVLKQVGEEMQLTWAQNAITCGFNALEQILQSTAGIYCVGDEVTMADLCLVPQVANAERFKVDLTPYPTISSINKRLLVLEAFQVSHPCRQPDTPTELRA
notes: GSTZ1; protein on the human proteome microarray; source: spotted on the HuProt human proteome microarray
With B14, the binding result is “binds”.

B15: CUTA (natural protein, human, UniProt O60888 33-179, looked up)
chain: RLLLLPRVLLTMASGSPPTQPSPASDSGSGYVPGSVSAAFVTCPNEKVAKEIARAVVEKRLAACVNLIPQITSIYEWKGKIEEDSEVLMMIKTQSSLVPALTDFVRSVHPYEVAEVIALPVEQGNFPYLQWVRQVTESVSDSITVLP
notes: CUTA; protein on the human proteome microarray; source: spotted on the HuProt human proteome microarray
As to B15, the binding result is “binds”.

B16: CDCA3 (natural protein, human, UniProt Q99618 1-268, looked up)
chain: MGSAKSVPVTPARPPPHNKHLARVADPRSPSAGILRTPIQVESSPQPGLPAGEQLEGLKHAQDSDPRSPTLGIARTPMKTSSGDPPSPLVKQLSEVFETEDSKSNLPPEPVLPPEAPLSSELDLPLGTQLSVEEQMPPWNQTEFPSKQVFSKEEARQPTETPVASQSSDKPSRDPETPRSSGSMRNRWKPNSSKVLGRSPLTILQDDNSPGTLTLRQGKRPSPLSENVSELKEGAILGTGRLLKTGGRAWEQGQDHDKENQHFPLVES
notes: CDCA3; protein on the human proteome microarray; source: spotted on the HuProt human proteome microarray
Consider B16, for which the binding result is on record as “binds”.

B17: CRYZ (natural protein, human, UniProt Q08257 1-329, looked up)
chain: MATGQKLMRAVRVFEFGGPEVLKLRSDIAVPIPKDHQVLIKVHACGVNPVETYIRSGTYSRKPLLPYTPGSDVAGVIEAVGDNASAFKKGDRVFTSSTISGGYAEYALAADHTVYKLPEKLDFKQGAAIGIPYFTAYRALIHSACVKAGESVLVHGASGGVGLAACQIARAYGLKILGTAGTEEGQKIVLQNGAHEVFNHREVNYIDKIKKYVGEKGIDIIIEMLANVNLSKDLSLLSHGGRVIVVGSRGTIEINPRDTMAKESSIIGVTLFSSTKEEFQQYAAALQAGMEIGWLKPVIGSQYPLEKVAEAHENIIHGSGATGKMILLL
notes: CRYZ; protein on the human proteome microarray; source: spotted on the HuProt human proteome microarray
Consider B17, for which the binding result is on record as “binds”.

B18: C9orf9 (natural protein, human, UniProt Q96E40 1-222, looked up)
chain: MNEVKESLRSIEQKYKLFQQQQLTFTAALEHCRENAHDKIRPISSIGQVQSYMEHYCNSSTDRRVLLMFLDICSELNKLCQHFEAVHSGTPVTNNLLEKCKTLVSQSNDLSSLRAKYPHDVVNHLSCDEARNHYGGVVSLIPLILDLMKEWIAHSEKLPRKVLQHVSEPQAHQESTRGAARPAQAIGTQPRATKHKCRQLTKASLKPRGCSKPPWRPPGGKL
notes: C9orf9; protein on the human proteome microarray; source: spotted on the HuProt human proteome microarray
As to B18, the binding result is recorded as “binds”.

B19: GBGT1 (natural protein, human, UniProt Q8N5D6 1-347, looked up)
chain: MHRRRLALGLGFCLLAGTSLSVLWVYLENWLPVSYVPYYLPCPEIFNMKLHYKREKPLQPVVWSQYPQPKLLEHRPTQLLTLTPWLAPIVSEGTFNPELLQHIYQPLNLTIGVTVFAVGKYTHFIQSFLESAEEFFMRGYRVHYYIFTDNPAAVPGVPLGPHRLLSSIPIQGHSHWEETSMRRMETISQHIAKRAHREVDYLFCLDVDMVFRNPWGPETLGDLVAAIHPSYYAVPRQQFPYERRRVSTAFVADSEGDFYYGGAVFGGQVARVYEFTRGCHMAILADKANGIMAAWREESHLNRHFISNKPSKVLSPEYLWDDRKPQPPSLKLIRFSTLDKDISCLRS
notes: GBGT1; protein on the human proteome microarray; source: spotted on the HuProt human proteome microarray
Regarding B19, the binding result is given as “binds”.

B20: CYB5R1 (natural protein, human, UniProt Q9UHQ9 1-305, looked up)
chain: MGIQTSPVLLASLGVGLVTLLGLAVGSYLVRRSRRPQVTLLDPNEKYLLRLLDKTTVSHNTKRFRFALPTAHHTLGLPVGKHIYLSTRIDGSLVIRPYTPVTSDEDQGYVDLVIKVYLKGVHPKFPEGGKMSQYLDSLKVGDVVEFRGPSGLLTYTGKGHFNIQPNKKSPPEPRVAKKLGMIAGGTGITPMLQLIRAILKVPEDPTQCFLLFANQTEKDIILREDLEELQARYPNRFKLWFTLDHPPKDWAYSKGFVTADMIREHLPAPGDDVLVLLCGPPPMVQLACHPNLDKLGYSQKMRFTY
notes: CYB5R1; protein on the human proteome microarray; source: spotted on the HuProt human proteome microarray
With B20, the binding result is given as “binds”.

The record behind these values is PMC8274477 (Frontiers in Cell and Developmental Biology, 2021).
